Results taken from PMC9288427, “The CIP2A-TOPBP1 complex safeguards chromosomal stability during mitosis” (Nature Communications, 2022).

Target: T1, GST-tagged CIP2A Armadillo repeat domain (ArmRD, aa 1-559) (human, UniProt Q8TCG1 1-559)
T1 construct: CIP2A, human, aa 1-559 (bases 1 through 1677 of the full length cDNA) cloned into pGEX-4T3; the results give the ArmRD as amino acids 1-560; the methods give the construct as aa 1-559; also called GST-ArmRP of CIP2A; GST-tagged ArmRD
Test: pull-down; 800 µg CHO protein extract with HA-TOPBP1 aa740-899 bound to anti-HA agarose beads (1 h, 4 °C), unbound fraction washed away, 5 µg purified GST-tagged ArmRD added for 90 min at 4 °C, washed 3 x 15 min with cold PBS; Western blot
Conditions: both partners purified

B1: HA-tagged TOPBP1 aa740-899 fragment expressed in ExpiCHO-S cells (domain or fragment, human, UniProt Q92547 740-899, looked up)
chain: NSTKEERSLETEITNGINLNSDTAEHPGTRLQTHRKTVVTPLDMNRFQSKAFRAVVSQHARQVAASPAVGQPLQKEPSLHLDTPSKFLSKDKLFKPSFDVKDALAALETPGRPSQQKRKPSTPLSEVIVKNLQLALANSSRNAVALSASPQLKEAQSEKE
notes: Same construct as m1, other host; source: ExpiCHO-S, transfected; not shown: HA, N-terminal, kept
B1: binds.
